Assay [1] concerns the target GHRH receptor in human pituitary membrane homogenates (human) (UniProt Q02643). Description: ligand competition, [His1,125I-Tyr10,Nle27]hGHRH(1-32)NH2 displaced, human pituitary membranes.
Assay [2] shares this target. Kind of assay: ligand competition, 125I-JV-1-42 displaced, human pituitary membranes.
For assay [3], the target named is T1, GHRH receptor (rat) (rat, UniProt Q02644).
T1 sequence: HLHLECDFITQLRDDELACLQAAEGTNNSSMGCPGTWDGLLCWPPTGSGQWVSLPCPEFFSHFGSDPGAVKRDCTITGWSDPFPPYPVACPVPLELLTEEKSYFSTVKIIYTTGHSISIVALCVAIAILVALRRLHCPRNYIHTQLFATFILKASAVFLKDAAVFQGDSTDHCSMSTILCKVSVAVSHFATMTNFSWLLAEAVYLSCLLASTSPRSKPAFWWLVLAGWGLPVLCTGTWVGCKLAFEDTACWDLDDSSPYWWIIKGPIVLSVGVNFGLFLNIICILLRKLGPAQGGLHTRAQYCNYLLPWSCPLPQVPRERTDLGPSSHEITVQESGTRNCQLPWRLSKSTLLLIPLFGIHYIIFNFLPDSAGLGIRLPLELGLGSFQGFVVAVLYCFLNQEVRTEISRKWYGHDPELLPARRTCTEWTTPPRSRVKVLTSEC

The target of assay [4] is GHRH receptor in human pituitary membrane homogenates (human) (UniProt Q02643). Description: ligand competition, 125I-JV-1-42 displaced, human pituitary membranes. This is another data set of the same source.
Assay [5] addresses T2, GHRH receptor (human pituitary membrane homogenates) (Homo sapiens, UniProt Q02643).
T2 sequence (Q02643 23-423): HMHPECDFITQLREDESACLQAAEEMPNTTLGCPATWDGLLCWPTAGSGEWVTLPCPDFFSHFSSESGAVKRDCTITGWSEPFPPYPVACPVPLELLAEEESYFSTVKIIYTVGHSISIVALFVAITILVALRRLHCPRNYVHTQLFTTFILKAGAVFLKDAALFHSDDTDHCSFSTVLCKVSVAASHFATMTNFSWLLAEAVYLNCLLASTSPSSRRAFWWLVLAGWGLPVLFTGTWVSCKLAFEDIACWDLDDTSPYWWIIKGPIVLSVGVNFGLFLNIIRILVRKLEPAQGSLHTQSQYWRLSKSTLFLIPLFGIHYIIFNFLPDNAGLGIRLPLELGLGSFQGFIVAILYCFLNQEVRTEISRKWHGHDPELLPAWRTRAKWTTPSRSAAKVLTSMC
Description: GHRH receptor binding, ligand competition with 125I-labeled JV-1-42 (Table 7). The following applies: JI-38 = 1. Details: Normal human pituitaries were purchased from the National Hormone and Peptide Program; tissue National Hormone and Peptide Program (A. F. Parlow, Harbor-UCLA Medical Center, Torrance, Calif.); host or cells: normal human pituitary, membrane fraction / homogenate.

Assay [6] deals with T2, GHRH receptor (human pituitary membrane homogenates). Description: GHRH receptor binding, ligand competition with 125I-labeled JV-1-42 (Table 5).
Description: Normal human pituitaries were purchased from the National Hormone and Peptide Program (A. F. Parlow, Los Angeles, County Harbor-UCLA Medical Center, Torrance, Calif.).
Assay [7] has as its system GH level. Kind of assay: In vivo endocrine activity (GH release), intravenous administration. The following applies: rat. The protocol:
In vivo tests on endocrine activity of new GHRH agonists (Intravenous administration). For in vivo tests based on intravenous administration, adult male Sprague-Dawley rats were anesthetized with pentobarbital (6 mg/100/g, b.w.), and GHRH agonists were injected 20 minutes after the injection of pentobarbital. Blood samples were taken from the jugular vein (pretreated level), immediately after hGHRH(1-29)NH2 injection (as a control) or after hGHRH analogs injection. Blood samples were taken from the jugular vein 5, 15 and 30 minutes after the injection. The blood samples were centrifuged, plasma was removed and the GH level was measured by ELISA.

Assay [8] concerns GH level. Kind of assay: In vivo endocrine activity (GH release), subcutaneous administration. Particulars: rat, s.c. The protocol:
Subcutaneous Administration. Adult male rats were used and anesthetized with pentobarbital (6 mg/100 g, b.w.), by i.p. injection. […] Blood samples were taken from the jugular vein 5, 15 and/or 30 minutes after the injection. The blood samples were centrifuged, plasma was removed and the GH level was measured by ELISA. The results are summarized in terms of potency in Table 9.

Assay [9] has as its target T1, GHRH receptor (rat). Kind of assay: cell-based or functional assay.
In assay [10] the target is T3, GHRH receptor in human pituitary membrane homogenates (human, UniProt Q02643).
T3 sequence: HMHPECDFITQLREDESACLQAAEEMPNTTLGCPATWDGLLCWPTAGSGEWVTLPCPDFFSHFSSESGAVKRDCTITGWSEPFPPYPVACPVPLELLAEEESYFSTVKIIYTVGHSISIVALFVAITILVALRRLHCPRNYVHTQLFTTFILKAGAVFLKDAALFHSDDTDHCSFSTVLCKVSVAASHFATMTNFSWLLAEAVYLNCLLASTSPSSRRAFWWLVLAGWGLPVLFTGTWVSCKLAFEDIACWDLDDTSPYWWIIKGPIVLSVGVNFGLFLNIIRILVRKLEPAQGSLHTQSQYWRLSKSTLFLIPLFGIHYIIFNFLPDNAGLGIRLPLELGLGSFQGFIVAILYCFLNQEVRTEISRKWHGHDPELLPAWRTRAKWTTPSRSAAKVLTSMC
Description: ligand competition, 125I-JV-1-42 displaced, human pituitary membranes.

The target of assay [11] is T3, GHRH receptor in human pituitary …. The assay is described as above. This is another data set of the same source.

Read-outs that look alike come from different tables or passages of the source. Non-standard residues stand in square brackets, D forms with d. Residues, ends and D or L forms follow the SMILES beside them. No end group written: not given here. *: point of attachment. Phe(F5) = N[C@@H](Cc1c(F)c(F)c(F)c(F)c1F)C(=O)O; Desaminotyrosyl = O=C(CCc1ccc(O)cc1)*; NMeY = CN[C@@H](Cc1ccc(O)cc1)C(=O)O; Agmatine = N=C(N)NCCCCN*; Nle = CCCC[C@H](N)C(=O)O; Orn = NCCC[C@H](N)C(=O)O; Abu = CC[C@H](N)C(=O)O; GABA = NCCCC(=O)O

On to JI-38 (peptide), for which the IC50 in assay [1] stood at 1.95 nM; in assay [2], 1.71 nM; in [4], 4.35 nM. For the same molecule, the relative affinity (binding potency) vs GHRH (GHRH(1-29) = 1) is 3.03 in [1] and 2.4 in [2]. Besides, the relative affinity (binding potency) vs JI-38 in [1] and in [4] was 1 JI-38 = 1 in each case. In addition, the GH release from superfused rat pituitary cells, 1 nM for 3 min, GH by ELISA (peak fraction, average) with GHRH receptor (rat) [3] was determined as 195 ng/mL.
Turning to `CCCC[C@H](NC(=O)[C@@H](NC(=O)[C@H](CC(=O)O)NC(=O)[C@H](CCC(N)=O)NC(=O)[C@H](CC(C)C)NC(=O)[C@H](CC(C)C)NC(=O)[C@H](CCCN)NC(=O)[C@H](CCCNC(=N)N)NC(=O)[C@H](C)NC(=O)[C@H](CO)NC(=O)[C@H](CC(C)C)NC(=O)[C@H](CCC(N)=O)NC(=O)[C@H](CC)NC(=O)[C@H](CC(C)C)NC(=O)[C@@H](NC(=O)[C@H](CCCN)NC(=O)[C@H](CCCNC(=N)N)NC(=O)[C@H](Cc1ccc(O)cc1)NC(=O)[C@H](CO)NC(=O)[C@H](CC(N)=O)NC(=O)[C@@H](NC(=O)[C@H](Cc1c(F)c(F)c(F)c(F)c1F)NC(=O)[C@@H](NC(=O)[C@H](C)NC(=O)[C@H](CC(=O)O)NC(=O)[C@@H](C)NC(=O)CCc1ccc(O)cc1)[C@@H](C)CC)[C@@H](C)O)C(C)C)[C@@H](C)CC)C(=O)N[C@@H](CO)C(=O)N[C@@H](CCCNC(=N)N)C(=O)NCCCC(N)=O` [Peptide P-25502, [Dat^1, D-Ala^2, Fpa5^6, Orn^12, Abu^15, Orn^21, Nle^27, Gab^30]hGHRH(1-30)NH2] (Desaminotyrosyl-[dA]DAI[Phe(F5)]TNSYR[Orn]VL[Abu]QLSAR[Orn]LLQDI[Nle]SR[GABA]-NH2), the “Relative affinitiy (Binding potency) vs JI-38” value was 13.18 in assay [5] and 24.4 in assay [6] (JI-38 = 1). Moreover, the “Relative affinitiy (Binding potency) vs GHRH” value in assay [6] (GHRH(1-29) = 1) is recorded as 58.0. Moreover, the “Stimulation of growth hormone levels after i.v. administration (comparison in words)” value in the assay with GH level [7] was “most potent”. For the same molecule, the “Stimulation of growth hormone levels after s.c. administration (comparison in words)” value with GH level [8] is reported as “stimulated greater growth hormone levels than hGHRH or JI-38”.

B1: [N-Me-Tyr1, Gln8, Orn12, Abu15, Orn21, Nle27, Asp28, Agm29]hGHRH(1-29) (peptide)
peptide: [NMeY]ADAIFTQSYR[Orn]VL[Abu]QLSAR[Orn]LLQDI[Nle]D[Agmatine]
Take B1: in the assay with GHRH receptor (rat) [9], the “GH-releasing potency in superfused rat pituitary cells relative to JI-38” value was ~3 times (vs JI-38). In [10], the IC50 was 0.01 nM, the “relative affinity (binding potency) vs GHRH” value is 406 GHRH(1-29) = 1 and the “relative affinity (binding potency) vs JI-38” value came out at 171 JI-38 = 1. Moreover, in assay [11], the IC50 is 0.27 nM and the “relative affinity (binding potency) vs JI-38” value came out at 16.1 JI-38 = 1.

The term IC50 denotes the point on the concentration scale where inhibition reaches its midpoint. Low values mean greater potency in that assay, high ones weaker potency in that assay.

(Values after patent publication US9393271B2, “GHRH agonists for islet cell transplantation and function and the treatment of diabetes” (UNIVERSITY OF MIAMI, priority 2012, dated 2016).)
